{
  "source": "patent US6429297B1",
  "about": "“Modified avidin and streptavidin and methods of use thereof” (University of Rochester, priority 1995, dated 2002)",
  "key": {"[1]": {"conditions": "rabbit, in vivo", "experimental": "(§1) SA and Avid, 0.5 mg, were radiolabeled with starting activities of ˜0.3 mCi ^131I and ˜0.1 mCi ^131I, respectively.\n(§2) Biodistribution was determined in vivo. New Zealand White rabbits, ˜3 kg, (n=3 per experiment) were fasted for 12 hours prior to the experiment and anesthetized using an intramuscular injection of chlorpromazine (25 mg/kg) followed by intravenous sodium pentobarbital (15 mg/kg). An external jugular vein was dissected and catheterized using a 5 French straight catheter for injection and collection of whole blood. The animal was placed in a supine position under the gamma camera for imaging and was then injected with [75 μg] of the radiolabeled proteins prepared above. Whole blood samples (2-3 ml) were taken at intervals for 2 hours. Planar gamma camera images (30K count acquisition) were taken at 5, 30, 60 and 120 minutes. At two hours, animals were euthanized. Major organs were removed, weighed and representative samples taken for biodistribution analysis. Blood volume was estimated to be 6% of total body weight."}, "[2]": {"assay": "DACB (biotin chelate) saturation / biotin binding assay", "description": "The ability of the compounds of the present invention to bind to biotin can be assessed by in vitro assays known to one of ordinary skill in the art. For example, the compounds of the present invention are incubated with a molar excess of radiolabeled biotin under conditions sufficient for avidin-biotin or streptavidin-biotin binding. Biotin bound to the tested compound is separated from unbound biotin, for example by filtration. The bound biotin/modified Avid or SA ratio is determined by dividing the activity in the retentate by the specific activity of the radiolabeled biotin. The binding ratios for each modified Avid or SA compound are determined by dividing the bound moles of biotin by the moles of each compound.\nIn a preferred embodiment, the radiolabeled biotin is the biotin chelate deferoxamineacetylcysteinylbiotin (DACB) labeled with ^67Ga. DACB is known in the art and described for example by Rosebrough et al (1993) J. Pharm. Exp. Therap. 265:408 and in U.S. Pat. No. 5,326,778. DACB can be radiolabeled by direct addition of carrier free ^67Ga citrate (DuPont Merck Pharmaceutical Co., Billerica, Mass.). Samples of Avid, SA, modified Avid, and modified SA are incubated with a 20/1 molar excess of ^67Ga-DACB on CENTRICON-30 filters (Amicon, Beverly, Mass.) in 0.05M Tris/0.15M NaCl, pH 7.5. After two washings, the bound DACB/protein ratio is determined by dividing the bound activity in the retentate by the specific activity of ^67Ga-DACB. The binding ratio for each compound is determined by dividing the bound moles of DACB by the moles of streptavidin. […]\nThe purified DACB was then used to access the ability of the compounds prepared in accordance with Examples I-III to bind to biotin. […] After 2 washings, the bound DACB/protein ratio was determined by dividing the bound activity in the retentate by the specific activity of ^67Ga DACB (˜2×10^16 cpm/mole). The binding ratios for each sample were determined by dividing the bound moles of DACB by the moles of each protein. […]"}, "[3]": {"conditions": "rabbit, in vivo", "remark": "listed apart in the source", "experimental": "(§3) The blood clearance kinetics of the compounds of the present invention can be assessed by in vivo assays. The modified Avid and SA compounds are detectably labeled, for example by radiolabeling, injected into animals, and blood clearance is then determined by biodistribution analysis of radiolabeled samples. For example, the compounds of the present invention can be radiolabeled with ^131I by the Pierce lodobead method (Pierce, Rodeford, Ill.) and separated from free iodine for example by ultrafiltration using CENTRICON-30 filters. Experimental animals, for example, rabbits weighing about 3 kilograms, are fasted, anesthetized, and an external jugular vein is dissected and catheterized for injection and collection of blood samples. A radiolabeled compound of the present invention is injected. Whole blood samples are taken at various time intervals for about two hours. By comparing the blood clearance of galactose-modified SA with native SA, and Avid-E, the skilled artisan can determine the extent of modification that results in optimal blood clearance.\nas §1, §2"}, "[4]": {"parameters": "species or system rabbits", "conditions": "rabbit, in vivo, 0.12 mg", "description": "0.3 mg of SA-Tgal or SA-pTgal were-added to a microcentrifuge tube containing ˜0.5 mCi of I-131. Three Iodobeads were added and then mixed and incubated for 12 minutes at room temperature. Free I-131 was removed by ultrafiltration using centricon-30 filters. SA-Tgal and SA-pTgal concentration was determined spectrophotometrically. (E^1%280 nm=34)\n0.12 mg of I-131 SA-Tgal and I-131 SA-pTgal were injected into rabbits for two hours. […] The liver accumulation for SA-Tgal was 90% compared to 16% for SA-pTgal."}, "[5]": {"assay": "blood clearance of ^131I-labelled modified SA and Avid in rabbits", "conditions": "rabbit, ^131I label, over 2 hours", "experimental": "as §3, §1, §2"}, "[6]": {"assay": "biodistribution and gamma camera imaging of ^131I-labelled modified SA and Avid in rabbits", "conditions": "rabbit; for kidney accumulation (biodistribution) / liver accumulation (biodistribution): 2 hours after injection; for planar gamma camera images, location of activity: images at 5, 30 and 120 minutes", "experimental": "as §1, §2"}},
  "note": "Where two headings read alike, the source gives them in different places.",
  "data": [
    {"substance": "streptavidin [SA]", "values": [
      {"measurement": "planar gamma camera images, location of activity", "setting": "[1]", "result": "vascular activity as indicated by systemic circulation and cardiac activity"},
      {"measurement": "DACB binding ratio (bound moles DACB per mole protein)", "setting": "[2]; 20/1 molar excess ^67Ga DACB, pH 7.5", "result": 3.6},
      {"measurement": "percent of injected dose circulating in the blood at 2 hours", "setting": "[3]", "result": "greater than 50%"}
    ]},
    {"substance": "SA-pTgal: acetylated Tgal modified streptavidin", "values": [
      {"measurement": "blood clearance (in words)", "setting": "[4]", "result": "much slower than that of the SA-Tgal"}
    ]},
    {"substance": "Avid-N: avidin neutralized by acetylation of its lysine amino acids", "values": [
      {"measurement": "blood clearance (in words)", "setting": "[5]", "result": "cleared slower than native Avid"},
      {"measurement": "DACB saturation analysis", "setting": "[2]; sample made at NHS-Ac/Avid molar ratio 10", "result": "approximated the binding of DACB to native avidin"},
      {"measurement": "DACB saturation analysis", "setting": "[2]; sample made at NHS-Ac/Avid molar ratio 25", "result": "approximated the binding of DACB to native avidin"},
      {"measurement": "kidney accumulation (biodistribution)", "setting": "[6]", "result": "decreased considerably"},
      {"measurement": "liver accumulation (biodistribution)", "setting": "[6]", "result": "high liver accumulation"},
      {"measurement": "planar gamma camera images, location of activity", "setting": "[6]", "result": "dramatic reduction in kidney activity and a corresponding increase in liver activity"}
    ]},
    {"substance": "Avid-E/N: avidin both neutralized and deglycosylated", "values": [
      {"measurement": "blood clearance (in words)", "setting": "[5]", "result": "substantially prolonged"},
      {"measurement": "kidney accumulation (biodistribution)", "setting": "[6]", "result": "low levels in both the kidney and liver"},
      {"measurement": "liver accumulation (biodistribution)", "setting": "[6]", "result": "low levels in both the kidney and liver"},
      {"measurement": "planar gamma camera images, location of activity", "setting": "[6]", "result": "circulatory activity with a corresponding decrease in liver and kidney activity"}
    ]},
    {"substance": "avidin [reference compound]", "values": [
      {"measurement": "blood clearance (in words)", "setting": "[5]", "result": "cleared quickly"},
      {"measurement": "kidney accumulation (biodistribution)", "setting": "[6]", "result": "accumulated mostly in the liver and kidney"},
      {"measurement": "liver accumulation (biodistribution)", "setting": "[6]", "result": "accumulated mostly in the liver and kidney"},
      {"measurement": "planar gamma camera images, location of activity", "setting": "[6]", "result": "exclusively in the liver and kidneys"}
    ]}
  ]
}
